The text below walks through data of article PMC6806390.

This assay addresses Cytochrome-C, type III (Sigma C-2506) (UniProt P00004). Briefly: SDS-PAGE of the methanol precipitate.

Sequence of Cytochrome-C, type III (Sigma C-2506), P00004 1-105 (natural protein; other documents disagree on this pair) (P00004 whole entry): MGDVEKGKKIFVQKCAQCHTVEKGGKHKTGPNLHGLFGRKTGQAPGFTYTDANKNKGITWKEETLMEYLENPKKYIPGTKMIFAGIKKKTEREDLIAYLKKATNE

On to “Cytochrome-C, type III (Sigma C-2506), P00004 1-105 (natural protein; other documents disagree on this pair)”, for which the stoichiometry N (usually a count of units in the complex or per binding partner) is more than 7.
